From patent US20250276092A1 (Regeneron, published 2025)
Values belong to the binder of their own block, whether it stands above or below them.

How the values were obtained:
[1] = biological target: T1, monkey CD40 extracellular domain expressed with a C-terminal myc-myc-hexahistidine tag (monkey); assay: SPR 25C, captured mAb
T1 construct: also called mfCD40-MMH; REGN3097
T1 chain: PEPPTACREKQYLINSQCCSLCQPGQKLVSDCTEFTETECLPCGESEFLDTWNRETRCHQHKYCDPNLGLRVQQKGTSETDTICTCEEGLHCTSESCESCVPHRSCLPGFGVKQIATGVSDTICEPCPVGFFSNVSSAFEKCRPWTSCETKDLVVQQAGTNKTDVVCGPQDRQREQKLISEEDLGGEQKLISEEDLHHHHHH
Description: (§1) The equilibrium dissociation constants (KD) for anti-CD40 bivalent and bispecific monoclonal antibodies (mAbs) were determined using a real-time surface plasmon resonance (SPR)-based Biacore 4000 biosensor. All binding studies were performed in 10 mM HEPES, 150 mM NaCl, 3 mM EDTA, and 0.05% v/v surfactant Tween-20, pH 7.4 (HBS-ET) running buffer at 25° C. and 37° C. The Biacore CM5 sensor surface was first derivatized by amine coupling with a monoclonal mouse anti-human Fc antibody (REGN2567) to capture anti-CD40 bivalent parental and anti-CD40×CD40 bispecific antibodies. Different concentrations of CD40 reagents, human CD40 extracellular domain expressed with a C-terminal myc-myc-hexahistidine tag (“hCD40-MMH”; REGN3094; SEQ ID NO: 53), monkey CD40 extracellular domain expressed with a C-terminal myc-myc-hexahistidine tag (“mfCD40-MMH”; REGN3097; SEQ ID NO: 54), and mouse CD40 extracellular domain expressed with a C-terminal myc-myc-hexahistidine tag (“mCD40-MMH”; REGN3098; SEQ ID NO: 55), at concentrations ranging from 3.7 nM to 100 nM or 3.3 nM to 90 nM in a series of 3-fold dilutions prepared in HBS-ET running buffer were injected at a flow rate of […] for 4 minutes or […] for 5 minutes. The dissociation of different CD40 reagents bound to anti-CD40 bivalent parental and anti-CD40×CD40 bispecific antibodies was monitored for 10 minutes in HBS-ET running buffer. At the end of each cycle, the anti-CD40 bivalent parental and anti-CD40×CD40 bispecific antibodies capture surface was regenerated using a 12 sec injection of 20 mM H₃PO₄.
(§2) The association rate (ka) and dissociation rate (kd) were determined by fitting the real-time binding sensorgrams to a 1:1 binding model with mass transport limitation using Scrubber 2.0c curve-fitting software. Binding dissociation equilibrium constant (KD) and dissociative half-life (t½) were calculated from the kinetic rates as: KD (M)=kd/kₐ, and t_{1/2} (min)=[ln(2)/(60*kd)].

[2] = biological target: T2, mouse CD40 extracellular domain expressed with a C-terminal myc-myc-hexahistidine tag (mouse); assay: SPR 25C, captured mAb
T2 construct: also called mCD40-MMH; REGN3098
T2 chain: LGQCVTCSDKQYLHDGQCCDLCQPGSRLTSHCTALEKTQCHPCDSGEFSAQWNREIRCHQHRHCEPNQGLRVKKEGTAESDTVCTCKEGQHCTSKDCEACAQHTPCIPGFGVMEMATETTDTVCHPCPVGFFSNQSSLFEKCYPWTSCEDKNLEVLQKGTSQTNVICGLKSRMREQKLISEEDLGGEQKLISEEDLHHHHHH
Description: as §1, §2

[3] = biological target: T3, human CD40 extracellular domain expressed with a C-terminal myc-myc-hexahistidine tag (human); assay: SPR 25C, captured mAb
T3 construct: also called hCD40-MMH; hCD40-mmH
Description: as §1, §2

[4] = biological target: T2, mouse CD40 extracellular domain …; assay: SPR 37C, captured mAb
Description: as §1, §2

[5] = biological target: T3, human CD40 extracellular domain …; assay: SPR 37C, captured mAb
Description: as §1, §2

[6] = biological target: T4, human CD40 expressed on cells (human, UniProt P25942 21-277); assay: cell-based or functional assay
[7] = biological target: T4, human CD40 expressed on cells; assay: cell-based or functional assay; remark: listed apart in the source
[8] = biological target: T4, human CD40 expressed on cells; assay: cell-based or functional assay; remark: listed apart in the source
[9] = biological target: T4, human CD40 expressed on cells; assay: cell-based or functional assay; remark: listed apart in the source
[10] = biological target: T4, human CD40 expressed on cells; assay: cell-based or functional assay; remark: listed apart in the source
[11] = biological target: T4, human CD40 expressed on cells; assay: cell-based or functional assay; remark: listed apart in the source
[12] = biological target: T3, human CD40 extracellular domain …; assay: ELISA, blocks 40 nM hCD40-mmH binding to coated 9His-hCD40L
Description: In the blocking assay, 9His-hCD40L was passively absorbed at a concentration of 5 μg/mL in PBS on a 96-well microtiter plate overnight at 4° C. […] In a separate 96-well microtiter plate, a fixed amount of 40 nM hCD40-mmH was pre-mixed with one of the following antibodies, at concentrations ranging from 977 pM to 1 μM in PBS+0.5% BSA: (1) anti-CD40×CD40 bispecific antibodies (REGN16431, REGN16432, REGN16634, and REGN16335); (2) parental anti-CD40 mAbs (bivalent antibodies comprising 2 fragment antigen-binding [Fab] arms identical to one of anti-CD40 Fab of anti-CD40×CD40 antibodies); (3) anti-CD40×Irrelevant antibodies (bivalent antibodies that incorporate one Fab arm identical to one of anti-CD40 Fab of anti-CD40×CD40 antibodies and another Fab arm specific to an irrelevant antigen); and (4) human IgG4 with Fc mutation isotype control antibodies (REGN7540 and REGN4513). The fixed concentration of hCD40-mmH was selected to be near the concentration (EC₅₀ value) that generated 50% of the maximal binding to the plate-adhered 9His-hCD40L. After one-hour incubation, the antibody-antigen complexes were transferred to the microtiter plate coated with 9His-hCD40L. After one hour incubation at room temperature, the plates were washed, and plate-bound hCD40-mmH protein was detected with horseradish peroxidase (HRP) conjugated goat anti-c-Myc antibody. The plates were then developed using TMB substrate solution (BD Biosciences) according to the manufacturer's recommended procedure and the absorbance at 450 nm (OD₄₅₀) was measured on a SpectraMax i3× plate reader.
Binding data were analyzed using a sigmoidal (four-parameter logistic) dose-response model with GraphPad Prism™ software. […] The percent blocking of tested antibodies at the highest tested concentration ([…]) was calculated based on the formula shown below: […]
Target sequence in this assay (chain, as listed by the source limits assumed): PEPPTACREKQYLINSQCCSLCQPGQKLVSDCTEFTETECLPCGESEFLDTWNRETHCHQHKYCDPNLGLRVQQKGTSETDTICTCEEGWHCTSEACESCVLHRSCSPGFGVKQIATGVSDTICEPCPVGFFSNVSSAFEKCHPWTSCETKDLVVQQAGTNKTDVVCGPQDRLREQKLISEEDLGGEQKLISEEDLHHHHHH

T4 sequence (P25942 21-277): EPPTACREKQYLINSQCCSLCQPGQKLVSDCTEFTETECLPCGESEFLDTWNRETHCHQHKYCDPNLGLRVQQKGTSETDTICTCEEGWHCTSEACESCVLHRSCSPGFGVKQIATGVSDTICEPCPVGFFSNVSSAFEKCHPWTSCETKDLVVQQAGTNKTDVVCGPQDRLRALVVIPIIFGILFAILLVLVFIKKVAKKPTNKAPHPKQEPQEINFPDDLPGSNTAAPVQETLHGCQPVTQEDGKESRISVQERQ

100 nM Ag Bound (RU) [1]: 63.1 RU
100 nM Ag Bound (RU) [2]: 0.2 RU
100 nM Ag Bound (RU) [3]: 62 RU
100 nM Ag Bound (RU) [4]: 0.2 RU
100 nM Ag Bound (RU) [5]: 66.5 RU
EC50 in the presence of CD40L (potentiation), NFkB-luc Ramos, 500 pM hCD40L [6]: 8.14e-12 M
Max % activation, NFkB-luc Ramos, no ligand [6]: 8%
Max % inhibition, NFkB-luc Ramos, 500 pM hCD40L [6]: -130%
IC50, NFkB-luc Raji, 900 pM hCD40L [7]: 8.95e-12 M
Max % activation, NFkB-luc Raji, no ligand [7]: 9%
Max % inhibition, NFkB-luc Raji, 900 pM hCD40L [7]: 67%
EC50 in the presence of CD40L (potentiation), NFkB-luc THP-1, 10 nM hCD40L [8]: 0.00251 nM
Max % activation, NFkB-luc THP-1, no ligand [8]: 2%
Max % inhibition, NFkB-luc THP-1, 10 nM hCD40L [8]: -61%
B1: 30027P2 (antibody, human IgG4 S228P, kappa, V domains shown)
VH: EVQLVESGGGLVQPGGSLRLSCAASGFTFSSYAMNWVRQAPGKGLEWVSIISGTIGKTYYADSVKGRFTISRDNSKNTLYLQMNSLRGEDTAVYYCAKDTERDITGSPFDYWGQGTLVTVSS
VL: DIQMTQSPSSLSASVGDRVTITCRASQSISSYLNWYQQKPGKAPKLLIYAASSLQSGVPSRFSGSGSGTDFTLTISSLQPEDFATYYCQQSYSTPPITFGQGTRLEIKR
notes: Parental bivalent anti-CD40 mAb; also called H4sH30027P2

100 nM Ag Bound (RU) [3]: 61.2 RU
100 nM Ag Bound (RU) [5]: 61.2 RU
IC50, NFkB-luc Ramos, 500 pM hCD40L [6]: 8.54e-11 M
Max % activation, NFkB-luc Ramos, no ligand [6]: 6%
Max % inhibition, NFkB-luc Ramos, 500 pM hCD40L [6]: 90%
IC50, NFkB-luc Raji, 900 pM hCD40L [7]: 1.07e-10 M
Max % activation, NFkB-luc Raji, no ligand [7]: 13%
Max % inhibition, NFkB-luc Raji, 900 pM hCD40L [7]: 82%
IC50, NFkB-luc THP-1, 10 nM hCD40L [8]: 0.287 nM
Max % activation, NFkB-luc THP-1, no ligand [8]: 2%
Max % inhibition, NFkB-luc THP-1, 10 nM hCD40L [8]: 98%
% max blockade relative to no mAb, IL-6, B cells, donor 1 [9]: 84%
% max blockade relative to no mAb, IL-6, B cells, donor 2 [9]: 92.7%
% max blockade relative to no mAb, IL-6, B cells, donor 3 [9]: 92.7%
% max blockade relative to no mAb, IL-10, B cells, donor 1 [10]: 80.7%
% max blockade relative to no mAb, IL-10, B cells, donor 2 [10]: 86.9%
% max blockade relative to no mAb, IL-10, B cells, donor 3 [10]: 89.3%
% max blockade relative to no mAb, TNFa, B cells, donor 1 [11]: 44.7%
% max blockade relative to no mAb, TNFa, B cells, donor 2 [11]: 74.1%
% max blockade relative to no mAb, TNFa, B cells, donor 3 [11]: 70.4%
% Blocking at highest mAb concentration [12]: 93%
B2: REGN16431 (bispecific antibody, human IgG4 S228P, kappa)
heavy 1: QLQLQESGPGLVRPSETLSLTCSVSGASMNTNNYYWGWIRQPPGKGLEWIGSGYYNGNTYYNPSLKSRVTISVDTSKNQFSLKLNSVTAADTAVYYCARQTPPRIIGSPNIWGQGTMVTVSSASTKGPSVFPLAPCSRSTSESTAALGCLVKDYFPEPVTVSWNSGALTSGVHTFPAVLQSSGLYSLSSVVTVPSSSLGTKTYTCNVDHKPSNTKVDKRVESKYGPPCPPCPAPPVAGPSVFLFPPKPKDTLMISRTPEVTCVVVDVSQEDPEVQFNWYVDGVEVHNAKTKPREEQFNSTYRVVSVLTVLHQDWLNGKEYKCKVSNKGLPSSIEKTISKAKGQPREPQVYTLPPSQEEMTKNQVSLTCLVKGFYPSDIAVEWESNGQPENNYKTTPPVLDSDGSFFLYSRLTVDKSRWQEGNVFSCSVMHEALHNHYTQKSLSLSLGK
heavy 2: EVQLVESGGGLVQPGGSLRLSCAASGFTFGSYGMAWVRQAPGKGLEWVSAISGSGDYTNYADSVKRRFTISRDNSKNTLYLQMSSLRAEDTAVYYCAKEKTGTTGYLYSGMDVWGQGTTVTVSSASTKGPSVFPLAPCSRSTSESTAALGCLVKDYFPEPVTVSWNSGALTSGVHTFPAVLQSSGLYSLSSVVTVPSSSLGTKTYTCNVDHKPSNTKVDKRVESKYGPPCPPCPAPPVAGPSVFLFPPKPKDTLMISRTPEVTCVVVDVSQEDPEVQFNWYVDGVEVHNAKTKPREEQFNSTYRVVSVLTVLHQDWLNGKEYKCKVSNKGLPSSIEKTISKAKGQPREPQVYTLPPSQEEMTKNQVSLTCLVKGFYPSDIAVEWESNGQPENNYKTTPPVLDSDGSFFLYSRLTVDKSRWQEGNVFSCSVMHEALHNRFTQKSLSLSPGK
light: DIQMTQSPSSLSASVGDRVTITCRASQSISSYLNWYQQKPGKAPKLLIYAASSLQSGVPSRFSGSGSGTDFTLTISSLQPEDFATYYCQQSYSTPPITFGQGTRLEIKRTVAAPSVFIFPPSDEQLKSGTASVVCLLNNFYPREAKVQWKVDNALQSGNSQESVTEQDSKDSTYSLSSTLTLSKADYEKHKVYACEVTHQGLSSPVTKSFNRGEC
